Laboratory results: the supplement of paper PMC9732359
± gives the uncertainty stated by the source.

Assay: protein stability index of a GFP-peptide fusion (yeast GPS) (PSI 1-4); higher = more stable; sorted into four equal gates, so the index is relative within each strain
Summary of the method: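 Tiled yeast protein peptides of 17 residues were each joined downstream of GFP, on plasmids that also express Cherry. The pooled library was maintained in yeast, and mid-log cultures in leucine-free medium were sorted into four equal gates on the GFP/Cherry ratio. Plasmids from every gate were amplified by PCR and sequenced on Illumina, with barcodes linking reads to strains. The protein stability index of a peptide is its gate-number-weighted read frequency summed over the gates.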

EEELWNSPSKGNSERPS [YIL149C/MLP2]
protein stability index (doa10∆): 3.11 ± 0.1
protein stability index (pdr5∆): 3.38 ± 0.083
protein stability index (san1∆): 3.24 ± 0.061
protein stability index (ubr1∆): 3.27 ± 0.095

KQTDTGITHFRAGMTHE [PRP8]
protein stability index (doa10∆): 2.36 ± 0.055
protein stability index (pdr5∆): 2.61 ± 0.047
protein stability index (san1∆): 3.08 ± 0.057
protein stability index (ubr1∆): 2.94 ± 0.037

LQEKISTELNNKQYELF [SWI1]
protein stability index (doa10∆): 2.51 ± 0.077
protein stability index (pdr5∆): 2.74 ± 0.072
protein stability index (san1∆): 2.52 ± 0.062
protein stability index (ubr1∆): 2.77 ± 0.059

TAQKYPIYTGDGWVKLT [YMR153W/NUP53]
protein stability index (doa10∆): 1.63 ± 0.062
protein stability index (pdr5∆): 1.77 ± 0.06
protein stability index (san1∆): 1.62 ± 0.1
protein stability index (ubr1∆): 1.21 ± 0.041

RIANIEQNHLDNNYNTA [YDL088C/ASM4]
protein stability index (doa10∆): 3.11 ± 0.065
protein stability index (pdr5∆): 3.18 ± 0.071
protein stability index (san1∆): 3.08 ± 0.044
protein stability index (ubr1∆): 3.03 ± 0.064

SFLDPLNYGNICEPKET [YJL039C/NUP192]
protein stability index (doa10∆): 3.33 ± 0.12
protein stability index (pdr5∆): 2.81 ± 0.085
protein stability index (san1∆): 3.01 ± 0.095
protein stability index (ubr1∆): 2.66 ± 0.093

AYIKLLDQTKDTRITHL [SNF2]
protein stability index (doa10∆): 2.65 ± 0.085
protein stability index (pdr5∆): 3.03 ± 0.072
protein stability index (san1∆): 2.78 ± 0.06
protein stability index (ubr1∆): 2.39 ± 0.062

DKKQQTIDEQSQISPEK [RPN1]
protein stability index (doa10∆): 3.29 ± 0.11
protein stability index (pdr5∆): 3.46 ± 0.11
protein stability index (san1∆): 3.4 ± 0.063
protein stability index (ubr1∆): 3.26 ± 0.046

TVENPLRNWEELNIIPR [PRP28]
protein stability index (doa10∆): 1.49 ± 0.041
protein stability index (pdr5∆): 1.9 ± 0.054
protein stability index (san1∆): 1.48 ± 0.086
protein stability index (ubr1∆): 1.77 ± 0.046

NNVYFAAGALFVSSGFD [RPN14]
protein stability index (doa10∆): 1.78 ± 0.13
protein stability index (pdr5∆): 2.81 ± 0.15
protein stability index (san1∆): 1.92 ± 0.29
protein stability index (ubr1∆): 2.21 ± 0.17

RFRGKRVVYLKHLEDNT [RPL6A]
protein stability index (doa10∆): 2.21 ± 0.068
protein stability index (pdr5∆): 2.37 ± 0.053
protein stability index (san1∆): 2.15 ± 0.1
protein stability index (ubr1∆): 2.31 ± 0.049

TSKPVFSFGAATPSAKE [YLR335W/NUP2]
protein stability index (doa10∆): 2.95 ± 0.046
protein stability index (pdr5∆): 3.08 ± 0.053
protein stability index (san1∆): 3.08 ± 0.043
protein stability index (ubr1∆): 3.06 ± 0.041

YKTSKAAQDVWNRADNH [FAS1]
protein stability index (doa10∆): 2.96 ± 0.21
protein stability index (pdr5∆): 2.98 ± 0.17
protein stability index (san1∆): 1.71 ± 0.29

RLNPYAKVFAAEKLGSK [RPL4A]
protein stability index (doa10∆): 2.09 ± 0.14

TPNFDDVLKENNDADKG [RIP1]
protein stability index (doa10∆): 1.51 ± 0.093
protein stability index (pdr5∆): 1.35 ± 0.12
protein stability index (san1∆): 1.29 ± 0.15
protein stability index (ubr1∆): 1.76 ± 0.092

DNIDYAPMRLATAALEI [YJL039C/NUP192]
protein stability index (doa10∆): 2.35 ± 0.058
protein stability index (pdr5∆): 2.44 ± 0.041
protein stability index (san1∆): 2.29 ± 0.077
protein stability index (ubr1∆): 2.31 ± 0.042

MPSRFTKTRKHRGHVSA [RPL28]
protein stability index (doa10∆): 1.92 ± 0.06
protein stability index (pdr5∆): 2.19 ± 0.062
protein stability index (san1∆): 2.09 ± 0.12
protein stability index (ubr1∆): 2.39 ± 0.062

KLLDNIQEYQLCDNFNH [COR1]
protein stability index (doa10∆): 2.35 ± 0.074
protein stability index (pdr5∆): 2.31 ± 0.091
protein stability index (san1∆): 2.44 ± 0.086
protein stability index (ubr1∆): 2.2 ± 0.064

LPQSEWKAPSSIVLDSE [DIS3]
protein stability index (doa10∆): 3 ± 0.062
protein stability index (pdr5∆): 3.34 ± 0.069
protein stability index (san1∆): 3.14 ± 0.052
protein stability index (ubr1∆): 3.15 ± 0.05

LGEFSITYTPVRHGRAG [RPS15]
protein stability index (doa10∆): 1.85 ± 0.15
protein stability index (pdr5∆): 1.85 ± 0.12
protein stability index (san1∆): 1.61 ± 0.15

TTKILGDKILGNLYSKV [YML103C/NUP188]
protein stability index (doa10∆): 2.69 ± 0.079
protein stability index (pdr5∆): 2.82 ± 0.08
protein stability index (san1∆): 3.16 ± 0.058
protein stability index (ubr1∆): 2.75 ± 0.051

HLMSWSKTGIIAYSDSQ [SIN4]
protein stability index (doa10∆): 1.63 ± 0.11
protein stability index (pdr5∆): 1.59 ± 0.15
protein stability index (san1∆): 1.32 ± 0.12
protein stability index (ubr1∆): 2.2 ± 0.2

PLLTKRKDLRDKLICSI [DIS3]
protein stability index (doa10∆): 2.55 ± 0.088
protein stability index (pdr5∆): 2.62 ± 0.071
protein stability index (san1∆): 2.31 ± 0.1
protein stability index (ubr1∆): 3.06 ± 0.13

ASKKFGKICLILTRLNG [SSN2]
protein stability index (doa10∆): 1.99 ± 0.17
protein stability index (pdr5∆): 2.14 ± 0.27

YLRVSFKNTRETAQAIN [RPL17A]
protein stability index (doa10∆): 1.51 ± 0.03
protein stability index (pdr5∆): 1.34 ± 0.042
protein stability index (san1∆): 1.5 ± 0.1
protein stability index (ubr1∆): 1.31 ± 0.034

KKEKLDSGEVDADGDID [DPB4]
protein stability index (doa10∆): 3.05 ± 0.15
protein stability index (pdr5∆): 3.4 ± 0.17
protein stability index (san1∆): 3.29 ± 0.12
protein stability index (ubr1∆): 3.36 ± 0.11

QNDTPMFKLGNFESPVL [YLR018C/POM34]
protein stability index (doa10∆): 2.08 ± 0.066
protein stability index (pdr5∆): 2.48 ± 0.059
protein stability index (san1∆): 2.62 ± 0.05
protein stability index (ubr1∆): 2.29 ± 0.034

RNARAARAAKIAPRPLD [RPL13B]
protein stability index (doa10∆): 2.86 ± 0.12
protein stability index (pdr5∆): 3.11 ± 0.09
protein stability index (san1∆): 3.14 ± 0.074
protein stability index (ubr1∆): 2.45 ± 0.056

KSITLKGRNNESNNKKY [YDL088C/ASM4]
protein stability index (doa10∆): 3.19 ± 0.086
protein stability index (pdr5∆): 3.11 ± 0.066
protein stability index (san1∆): 3.13 ± 0.059
protein stability index (ubr1∆): 3.08 ± 0.064

ASEYIETLGLKYLGLKP [FAS1]
protein stability index (doa10∆): 3.27 ± 0.095
protein stability index (pdr5∆): 3.35 ± 0.093
protein stability index (san1∆): 3.26 ± 0.074
protein stability index (ubr1∆): 3.06 ± 0.089

ERAELETDEYISYTSHI [RPN1]
protein stability index (doa10∆): 3.14 ± 0.071
protein stability index (pdr5∆): 3.19 ± 0.076
protein stability index (san1∆): 3.01 ± 0.065
protein stability index (ubr1∆): 3.19 ± 0.05

MKKKLELISYRNESLKN [SRB8]
protein stability index (doa10∆): 2.96 ± 0.045
protein stability index (pdr5∆): 2.98 ± 0.058
protein stability index (san1∆): 2.94 ± 0.05
protein stability index (ubr1∆): 3.07 ± 0.035

FNFGGKSDTVTSASQPF [YOR098C/NUP1]
protein stability index (doa10∆): 2.21 ± 0.056
protein stability index (pdr5∆): 2.03 ± 0.056
protein stability index (san1∆): 2.07 ± 0.071
protein stability index (ubr1∆): 1.93 ± 0.049

TSPVTGATEKRKCAKPF [CSL4]
protein stability index (doa10∆): 1.89 ± 0.23
protein stability index (pdr5∆): 1.27 ± 0.15

GNNVQENELVITSIPKP [RMP1]
protein stability index (doa10∆): 3.42 ± 0.14
protein stability index (pdr5∆): 3.4 ± 0.11
protein stability index (san1∆): 3.37 ± 0.065
protein stability index (ubr1∆): 3.15 ± 0.064

EIKKVTQIVAKFPETSY [SIN4]
protein stability index (doa10∆): 2.25 ± 0.27
protein stability index (pdr5∆): 3.02 ± 0.11
protein stability index (ubr1∆): 2.57 ± 0.27

ALFLSKINRPPVSVSRI [RPL18A]
protein stability index (doa10∆): 2.29 ± 0.14
protein stability index (pdr5∆): 1.63 ± 0.076
protein stability index (san1∆): 1.6 ± 0.14
protein stability index (ubr1∆): 2.16 ± 0.16

LFGGRHYLFNTFTFTAH [SWP82]
protein stability index (doa10∆): 2.03 ± 0.042
protein stability index (pdr5∆): 2.1 ± 0.035
protein stability index (san1∆): 1.69 ± 0.061
protein stability index (ubr1∆): 1.82 ± 0.024

FEIDGDVIHFEDSSILQ [PCI8]
protein stability index (doa10∆): 3.15 ± 0.083
protein stability index (pdr5∆): 3.46 ± 0.072
protein stability index (san1∆): 3.04 ± 0.066
protein stability index (ubr1∆): 3.46 ± 0.044

RRSLKKQGRIKNATEEL [CSN12]
protein stability index (doa10∆): 3.2 ± 0.098
protein stability index (pdr5∆): 3.56 ± 0.083
protein stability index (san1∆): 3.37 ± 0.086
protein stability index (ubr1∆): 3.57 ± 0.066

LLKSTGLHPFEVAQLGS [RPB4]
protein stability index (doa10∆): 1.94 ± 0.12
protein stability index (pdr5∆): 1.81 ± 0.27
protein stability index (ubr1∆): 2.73 ± 0.2

NFNSSAPIADDNHSGDA [DSN1]
protein stability index (doa10∆): 1.92 ± 0.081
protein stability index (pdr5∆): 2.8 ± 0.1
protein stability index (san1∆): 2.45 ± 0.09
protein stability index (ubr1∆): 2.68 ± 0.067

LAINAKTITSGLKYALA [RPB2]
protein stability index (doa10∆): 2.65 ± 0.057
protein stability index (pdr5∆): 2.83 ± 0.073
protein stability index (san1∆): 2.4 ± 0.061
protein stability index (ubr1∆): 2.79 ± 0.044

ENIIQRLQAANSMEYTG [CDC53]
protein stability index (doa10∆): 1.94 ± 0.065
protein stability index (pdr5∆): 2.32 ± 0.11
protein stability index (san1∆): 2.25 ± 0.18
protein stability index (ubr1∆): 1.9 ± 0.095

ELSIRDVTHTLGMLDDN [SMC4]
protein stability index (doa10∆): 3.13 ± 0.091
protein stability index (pdr5∆): 3.04 ± 0.082
protein stability index (san1∆): 3.22 ± 0.049
protein stability index (ubr1∆): 3.27 ± 0.097

PDENHDNTSHDEQDDDN [BRN1]
protein stability index (doa10∆): 3.11 ± 0.1
protein stability index (pdr5∆): 3.2 ± 0.095
protein stability index (san1∆): 3.05 ± 0.12
protein stability index (ubr1∆): 3.11 ± 0.1

LQQQQQVVTTVASQSPH [SNF6]
protein stability index (doa10∆): 1.81 ± 0.08
protein stability index (pdr5∆): 1.92 ± 0.074
protein stability index (san1∆): 2.03 ± 0.11
protein stability index (ubr1∆): 2.25 ± 0.049

FKLFNKYRPETAAEKKE [RPL8A]
protein stability index (doa10∆): 2.56 ± 0.079
protein stability index (pdr5∆): 2.64 ± 0.083
protein stability index (san1∆): 2.5 ± 0.083
protein stability index (ubr1∆): 2.74 ± 0.071

LIGSIRFPTKFVTQFRH [RET1]
protein stability index (doa10∆): 1.57 ± 0.056
protein stability index (pdr5∆): 1.41 ± 0.057
protein stability index (san1∆): 1.29 ± 0.16
protein stability index (ubr1∆): 1.31 ± 0.048

NKQYHQANSNLTLLERK [NUT1]
protein stability index (doa10∆): 2.34 ± 0.054
protein stability index (pdr5∆): 2.77 ± 0.055
protein stability index (san1∆): 2.59 ± 0.082
protein stability index (ubr1∆): 2.83 ± 0.066

LLLKKIIKDYVLDIVPG [SRB4]
protein stability index (doa10∆): 2.74 ± 0.094
protein stability index (pdr5∆): 2.52 ± 0.084
protein stability index (san1∆): 2.33 ± 0.1
protein stability index (ubr1∆): 2.71 ± 0.073

ERPPLLPILPIQRLRLL [YOR098C/NUP1]
protein stability index (doa10∆): 1.34 ± 0.1
protein stability index (pdr5∆): 2.36 ± 0.12
protein stability index (san1∆): 1.95 ± 0.18
protein stability index (ubr1∆): 1.9 ± 0.11
